The source of these data is patent publication US12497460B2, “Anti-MSR1 antibodies and methods of use thereof” (REGENERON PHARMACEUTICALS, INC., priority 2018, dated 2025).

For assay [1], the system named is LPS-induced IL-1β release in differentiated THP-1 cells. The experiment in a line: LPS-mediated IL-1β release assay. The note with it: for IC50: 100 ng/ml LPS for 5 hours, read-out: IC50, inhibition of LPS-induced IL-1β secretion. The assay is classed as cell-based, human. How it is done:
To test the anti-inflammatory properties of anti-MSR1 antibody-steroid conjugates in vitro, a lipopolysaccharide (LPS)-mediated IL-1β release assay was performed. For the assay, THP-1 cells were seeded onto 96 well plates at 40,000 cells/well in media containing RPMI supplemented with 10% FBS and pencillin/streptomycinin and differentiated with 200 nM Phorbol Myristate Acetate (PMA) for 3 days. After the 3-day differentiation period, three-fold serial dilutions of antibody drug conjugates, unconjugated antibodies, or free payloads in fresh media were added to the cells at final concentration ranging from 100 nM to 0.01 nM. Media alone served as a blank control. Subsequently at 24, 48, or 72 hours later, cells were treated with 100 ng/ml LPS (InVivoGen, Cat #tlrl-eklps) for 5 hours. The cell media was then collected, and IL-1β levels were measured using a V-PLEX Proinflammatory Panel 1 human kit (Meso Scale Diagnostics, Cat #15049D-2) as per manufacturer's instructions. Subsequently, the plate was read on a Meso Scale Diagnostics instrument.
IC50 values were determined from a four-parameter logistic equation over a 10-point response curve (GraphPad Prism). All IC50 values are expressed in M (molar) concentration. The IC50 values and IL-1β amount at the maximum concentration of antibody-steroid conjugates or controls are shown in Table 22 each of the time point tested.

Assay [2] deals with Msr1^hu/hu ApoE^−/− mice, peritoneal cells. The experiment in a line: Ex vivo LPS-induced cytokine production by peritoneal cells after in vivo dosing. Set-up: species or system mouse. Particulars: for Cytokine IL-6 / Cytokine KC-GRO / Cytokine TNF-α: ex vivo LPS. How it is done:
To examine the anti-inflammatory effect of the anti-MSR1 antibody-steroid conjugates, an ex-vivo and in vivo LPS-induced inflammatory immune response model was performed.
Generation of a mouse inflammatory immune response model. Mice homozygously expressing human MSR1 extracellular domain in place of the mouse MSR1 extracellular domain and with a homozygous deletion of the ApoE gene were utilized (resulting mice referred to as Msr1^hu/hu ApoE^−/− mice).
Assay protocol for ex vivo LPS-induced responses. In ex vivo LPS challenge experiments, mice were intraperitoneally administered with 10 μL/g of anti-MSR1 antibody-steroid conjugates (H1H21234N-N297Q-LP13), isotype control steroid conjugate (Isotype control-LP13), unconjugated anti-MSR1 antibody (H1H21234N-N297Q) and isotype control antibodies at different time points (24, 48, and 72 hours) prior to harvesting the peritoneal cells from peritoneal cavity. […] All mice were sacrificed at 0 hour time point and peritoneal cells were obtained from the peritoneum by the peritoneal lavage technique. In brief, 5 mL of ice cold 1×PBS (ThermoFisher Scientific, Cat #20012027) containing 2% BSA (Gibco, Cat #A9576) and 0.6 mM EDTA (ThermoFisher Scientific, Cat #15575020) were injected into the peritoneal cavity using 27 g needle. […] The resuspended cells were plated at 500,000 cells per well in 24-well tissues culture plates and incubated with or without 10 ng/mL of LPS for 18 hours.
Measurement of cytokines at 18 hours post-LPS ex vivo challenge. Supernatants were collected into 96-well round bottom tissue culture plates at 18 hours post-ex vivo LPS challenge and stored at […] until further analysis. Cytokine concentrations in the supernatants were measured using a Proinflammatory Panel 1 (mouse) multiplex immunoassay kit (MesoScale Diagnostics, Cat #K15048D) according to manufacturer's instructions. Electrochemiluminescence was read on a Meso Scale Diagnostics SECTOR® instrument. Data analysis was performed using GraphPad Prism™ software. Statistical significance within the groups was determined by one-way Anova with Turkey's multiple comparison post-test (*p<0.01; **p<0.001; ***p<0.0001).

Assay [3] concerns the target T1, RAW264.7 cells (MSR1 positive) (Mus musculus, UniProt P30204).
T1 construct: using MSR1 positive RAW264.7 cells (ATCC, Catalog #TIB-71); host or cells: RAW264.7
T1 sequence (P30204 1-458): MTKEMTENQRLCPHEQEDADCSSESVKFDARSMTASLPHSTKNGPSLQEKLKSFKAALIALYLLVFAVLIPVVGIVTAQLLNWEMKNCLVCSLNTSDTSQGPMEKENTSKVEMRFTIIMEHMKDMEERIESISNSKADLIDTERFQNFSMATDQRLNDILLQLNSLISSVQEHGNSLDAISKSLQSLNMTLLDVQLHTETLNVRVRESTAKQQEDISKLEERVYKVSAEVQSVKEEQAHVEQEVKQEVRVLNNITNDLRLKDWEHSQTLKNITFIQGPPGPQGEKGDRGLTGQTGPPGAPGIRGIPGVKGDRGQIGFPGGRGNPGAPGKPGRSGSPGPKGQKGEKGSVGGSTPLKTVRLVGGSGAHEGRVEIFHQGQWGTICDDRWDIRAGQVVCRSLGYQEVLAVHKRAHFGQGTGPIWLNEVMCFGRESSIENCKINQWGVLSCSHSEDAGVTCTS
The assay is described as follows: Flow cytometry binding to cell surface-expressed mouse MSR1. Format: cell-based. Particulars: 10 μg/mL antibody. As to the method: To block binding to Fc receptors, RAW264.7 cells were incubated for 30 minutes at 4° C. with 500 μg/mL mouse IgG (Jackson ImmunoResearch, Cat #015-000-003) diluted in staining buffer, while B16F10.9 cells remained in staining buffer. Following Fc receptor blocking, 10 μg/mL of anti-MSR1 antibodies or an isotype control antibody were added to the cells and were subsequently incubated for 30 minutes on ice. […] The signal to noise (S/N) was determined by calculating the ratio of the anti-MSR1 antibodies or the control antibodies MFI to the unstained sample MFI (Table 11).
On the technique in general: In flow cytometry, cells or beads pass a laser one at a time.

Setting [4] is: administered 24 hours before peritoneal cell isolation.
Setting [5] is: administered 48 hours before peritoneal cell isolation.
[6] abbreviates: administered 72 hours before peritoneal cell isolation.

Where two headings read alike, the source gives them in different places. Marks after values point to notes of the source that are not given here.

B1: H1H21234N-N297Q-LP13 (conjugate)
VH: QVQLQESGPGLVKPSETLSLTCTVTGGSISRNYWSWIRQPPGKGLEWIGYIYYSGSIDYNPSLKSRVTISVDTSKNQFSLKLSSMTAADTAVYYCARDRWNWKYGMDVWGQGTTVIVSS
VL: EIVLTQSPGTLSLSPGERATLSCRASQTVRNNYLAWYHQKPGQAPRLLIYGASSRATGIPDRFSGSGSGTDFTLTISRLEPEDFTVYYCHQYGNSPWTFGQGTKMEIKR
As for B1, the IC50 was found to be 6.29 nM in assay [1] (24-hour time point), 3.59 nM in assay [1] (48-hour time point) and 1.7 nM in assay [1] (72-hour time point). Also, the “IL1beta released at max concentration tested” value in assay [1] (24 hour treatment before LPS) is reported as 119.43 pg/mL; in assay [1] (48 hour treatment before LPS), 69.3 pg/mL; in assay [1] (72 hour treatment before LPS), 70.31 pg/mL. The entries for the “Cytokine IL-6” value in assay [2] (setting [4]) and in assay [2] (setting [6]) were 21.1 ± 1.38**** ng/mL and 50.7 ± 14.1* ng/mL, respectively. For the same molecule, the figures for the “Cytokine KC-GRO” value in assay [2] (setting [4]), in assay [2] (setting [5]) and in assay [2] (setting [6]) were 9.3 ± 1.7 ng/mL, 6.3 ± 2.3* ng/mL and 13.1 ± 1.1 ng/mL, respectively. For the same molecule, the “Cytokine TNF-α” value in assay [2] (setting [4]) is 0.26 ± 0.08*** ng/mL; in assay [2] (setting [5]), 0.58 ± 0.06* ng/mL; in assay [2] (setting [6]) it was 0.47 ± 0.1** ng/mL. The “effect on ex vivo LPS-induced cytokine production (IL-6, KC-GRO, TNF-α) by peritoneal cells” value in assay [2] (i.p. dosing 24, 48, 72 hours (conjugates, antibodies) or 2 hours (free steroids) before cell harvest, 10 ng/mL LPS 18 hours) is on record as “efficacious in inhibiting LPS-induced cytokine production by peritoneal cells in a time-dependent manner”.

B2: H1H21227N-N297Q: "modified versions of 21227N (H1H21227N-N297Q and H1H21227N-N297D)"; anti-MSR1 antibody "with a N297Q single point mutation" (antibody, V domains shown)
VH: QVQLVQSGAEVKKPGASVKVSCKVSGYTLTELSIHWVRQVPGKGLEWMGGFDPEEGETIFAQEFRDRVTLTEDTSPDTAYMELSSLKSEDAAVYYCTTPRYCNNGICYDYWGQGTLVTVSS
VL: DIQMTQSPSSLSASVGDRVTITCRASQSISNYLNWYQQKPGKAPKLLIYTASSLQSGVPSRFSGSGSGTDFTLTISSLQTEDFATYYCQQSYSNFPITFGQGTRLEIKR
Consider B2, for which, in assay [3], the “RAW264.7 MFI” value is listed as 12810; the “RAW264.7 S/N” value amounted to 5; the “signal to noise (S/N), MFI over unstained sample MFI” value turned out to be 5.

Broadly, the IC50 is the midpoint of a concentration-inhibition curve.
